Test results taken from PMC3223566, “The Initiation Factor TFE and the Elongation Factor Spt4/5 Compete for the RNAP Clamp during Transcription Initiation and Elongation” (Molecular Cell, 2011).

Key:
[1] = molecular target: T1, RNAPΔRpo4/7, ten-subunit RNAP subassembly lacking Rpo4/7 (M. jannaschii, UniProt Q58443 1-78); test: fluorescence polarisation; fluorescence anisotropy; RNAP added to labeled TFE^44*Cy3B (50 nM); apparent dissociation constant by direct fitting of the titration curves; conditions: both partners purified
T1 construct: RNA polymerase subunit Rpo1′, M. jannaschii; holds the clamp coiled-coil motif; RNA polymerase subunit Rpo2″, M. jannaschii; RNA polymerase subunit Rpo5, M. jannaschii; As m6 without the chains Rpo4 and Rpo7; source: recombinant subunits, reconstituted in vitro without Rpo4/7; copies: + + + + + + + + +

[2] = molecular target: T2, M. jannaschii RNA polymerase, wild type, reconstituted from 12 recombinant subunits (M. jannaschii, UniProt Q58443 1-78; Q57840 1-187); test: as above; conditions: both partners purified
T2 construct: RNA polymerase subunit Rpo1′, M. jannaschii; holds the clamp coiled-coil motif; RNA polymerase subunit Rpo2″, M. jannaschii; RNA polymerase subunit Rpo4 (stalk), M. jannaschii; RNA polymerase subunit Rpo5, M. jannaschii; RNA polymerase subunit Rpo7 (stalk), M. jannaschii; In PIC and TEC experiments the same RNAP stood with DNA, TBP and TFB, or with a DNA/RNA scaffold (see the assay's format); …

B1: TFE labeled with Cy3B at residue 44 (WH domain) (natural protein)
chain: MLNDPLVQEVLFNIFEGDEKGFEVIDVLLEKGETTEEEIAKELFVKLNVVRKLLYKLYDARLVDYKRWKDEDTNWYSYTWLPTLEKLPYVVKKKINELIKDLEKKLEFEKNNMFFFCPNCNVRFTFEEAMDYGFSCPGCGNMLQEFDNSELIKDLEEQIKFLKEELKNNPFLK
modifications: p-azido phenylalanine (APA) at position 44, derivatized with Cy3B
- Kd [1]: 1700 ± 150 nM
- Kd [2]: 200 ± 10 nM
